Measured values as given in PMC12622487.

Biological target: Cys32 (UniProt position 32, FSATWCGPCKM)
Conditions: Reduced (free thiol) form is presumed; not explicitly stated for the pKa determination.

Thioredoxin-1 (native recombinant human TRX, rhTRX) (Homo sapiens)
pKa: 6.3
